Tests used:
[1] = biological target: T1, human complement C2 (human, UniProt P06681 21-752); test: SPR, mAb captured, huC2 analyte, pH 7.3
T1 construct: Recombinant full-length human C2 with C-terminal 8x His tag, purified from Expi293F supernatant; also called human C2; huC2
T1 sequence: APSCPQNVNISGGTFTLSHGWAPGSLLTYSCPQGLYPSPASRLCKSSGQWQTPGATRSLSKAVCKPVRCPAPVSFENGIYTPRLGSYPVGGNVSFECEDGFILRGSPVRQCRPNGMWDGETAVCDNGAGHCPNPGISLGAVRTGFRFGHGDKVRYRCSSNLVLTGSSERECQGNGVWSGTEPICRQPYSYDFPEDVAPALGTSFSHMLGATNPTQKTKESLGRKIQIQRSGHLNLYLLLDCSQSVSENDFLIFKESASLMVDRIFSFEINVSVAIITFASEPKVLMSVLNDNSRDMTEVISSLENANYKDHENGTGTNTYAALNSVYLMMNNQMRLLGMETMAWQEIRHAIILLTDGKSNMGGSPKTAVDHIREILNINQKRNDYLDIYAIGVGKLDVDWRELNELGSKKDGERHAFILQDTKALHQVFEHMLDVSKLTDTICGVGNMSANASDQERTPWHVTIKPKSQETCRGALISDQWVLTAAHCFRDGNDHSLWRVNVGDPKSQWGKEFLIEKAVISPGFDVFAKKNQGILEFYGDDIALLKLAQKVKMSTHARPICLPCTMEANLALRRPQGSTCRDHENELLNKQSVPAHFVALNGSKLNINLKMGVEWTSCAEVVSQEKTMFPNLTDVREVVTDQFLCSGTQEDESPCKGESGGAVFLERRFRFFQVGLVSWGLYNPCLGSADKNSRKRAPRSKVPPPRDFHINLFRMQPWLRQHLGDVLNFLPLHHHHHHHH

[2] = biological target: T1, human complement C2; test: SPR, mAb captured, huC2 analyte, neutral pH; pH 7
[3] = biological target: T2, human C2 P718A (human, UniProt P06681 21-752); test: SPR, antibody captured, C2 as analyte;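 note: biacore SPR at 37 °C, anti-C2 mAbs captured via goat anti-human IgG on CM5 chips, double-referenced sensorgrams fit to a 1:1 kinetic or steady-state model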
T2 sequence: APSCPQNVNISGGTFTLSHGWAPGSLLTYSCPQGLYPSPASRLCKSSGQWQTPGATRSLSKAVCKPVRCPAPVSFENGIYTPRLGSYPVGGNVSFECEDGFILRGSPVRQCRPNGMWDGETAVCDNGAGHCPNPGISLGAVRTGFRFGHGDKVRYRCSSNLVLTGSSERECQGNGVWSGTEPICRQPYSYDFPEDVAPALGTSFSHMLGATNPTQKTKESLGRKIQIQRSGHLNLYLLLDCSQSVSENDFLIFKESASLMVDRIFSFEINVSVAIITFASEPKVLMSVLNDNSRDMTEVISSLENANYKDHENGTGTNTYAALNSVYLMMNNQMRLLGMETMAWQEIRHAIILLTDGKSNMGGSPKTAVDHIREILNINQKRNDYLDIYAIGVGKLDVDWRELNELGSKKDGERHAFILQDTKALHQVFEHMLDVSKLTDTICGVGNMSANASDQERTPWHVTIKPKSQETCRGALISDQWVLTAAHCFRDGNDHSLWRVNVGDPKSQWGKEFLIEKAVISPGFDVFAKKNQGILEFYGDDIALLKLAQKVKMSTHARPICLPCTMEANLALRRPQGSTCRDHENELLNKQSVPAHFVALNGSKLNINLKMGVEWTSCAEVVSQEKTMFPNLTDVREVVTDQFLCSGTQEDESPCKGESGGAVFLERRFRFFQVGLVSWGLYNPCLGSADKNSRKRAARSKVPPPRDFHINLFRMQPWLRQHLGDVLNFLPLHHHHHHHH

[4] = biological target: T3, human FcRn/β2m (human, UniProt P55899 24-297; P61769 21-119); test: SPR, antibody immobilised, FcRn/β2m analyte, pH 6.0; pH 6.0
T3 construct: Soluble FcRn/β2m injected as analyte over immobilised antibody; also called neonatal Fc receptor
Description: Anti-C2 mAbs (1 μg/mL at pH 5) were immobilized on a carboxylmethyldextran (CM5) sensorchip surface using standard EDC/NHS chemistry. Human and Cyno FcRn/β2m (40 μM) were prepared in running buffer (10 mM HEPES, 150 mM NaCl, 10 mM MES adjusted to either pH 6 or pH 7.3) and injected on the immobilized anti-C2 surface at concentrations ranging from 0.078 to 40 μM, prepared in two-fold dilutions in running buffer. Association and dissociation phases were monitored for 180 and 600 seconds, respectively. […] Double referenced sensorgrams were fitted to either a 1:1 kinetic model (pH 6), including a term for mass transport limitation or to a 1:1 steady state model (pH 7.3) where responses at the end of the association phase were plotted against respective concentrations.
Binding to both human and cynomolgus monkey FcRn was tested using the SPR methods described above.

[5] = biological target: T4, human C2 G677A (human, UniProt P06681 21-752); test: SPR; KD relative to WT C2;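 note: biacore SPR at 37 °C, anti-C2 mAbs captured on an anti-human IgG chip, alanine or serine C2 surface mutants tested, KD from 1:1 fit compared with wild-type C2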
T4 sequence: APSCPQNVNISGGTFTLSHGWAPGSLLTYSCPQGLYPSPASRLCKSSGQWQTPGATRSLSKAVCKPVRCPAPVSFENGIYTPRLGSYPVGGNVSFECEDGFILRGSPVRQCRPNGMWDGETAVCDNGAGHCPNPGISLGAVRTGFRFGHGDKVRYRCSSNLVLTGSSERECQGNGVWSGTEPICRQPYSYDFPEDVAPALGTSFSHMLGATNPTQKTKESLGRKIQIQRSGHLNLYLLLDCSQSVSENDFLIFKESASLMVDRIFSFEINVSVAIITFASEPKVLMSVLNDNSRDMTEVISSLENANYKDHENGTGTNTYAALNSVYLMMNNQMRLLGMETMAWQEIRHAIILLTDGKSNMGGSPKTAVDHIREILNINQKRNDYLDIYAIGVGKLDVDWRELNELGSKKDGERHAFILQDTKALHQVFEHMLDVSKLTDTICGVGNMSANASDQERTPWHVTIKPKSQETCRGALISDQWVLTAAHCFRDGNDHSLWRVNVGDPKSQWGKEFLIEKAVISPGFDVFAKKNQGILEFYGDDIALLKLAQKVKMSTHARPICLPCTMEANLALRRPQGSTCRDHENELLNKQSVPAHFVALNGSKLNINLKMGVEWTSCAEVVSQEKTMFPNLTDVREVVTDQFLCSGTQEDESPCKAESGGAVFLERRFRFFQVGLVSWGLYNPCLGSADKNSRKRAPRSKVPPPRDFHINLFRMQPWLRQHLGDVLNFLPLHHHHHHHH

T3 sequence (P55899 24-297 limits assumed, chain 1 of 2): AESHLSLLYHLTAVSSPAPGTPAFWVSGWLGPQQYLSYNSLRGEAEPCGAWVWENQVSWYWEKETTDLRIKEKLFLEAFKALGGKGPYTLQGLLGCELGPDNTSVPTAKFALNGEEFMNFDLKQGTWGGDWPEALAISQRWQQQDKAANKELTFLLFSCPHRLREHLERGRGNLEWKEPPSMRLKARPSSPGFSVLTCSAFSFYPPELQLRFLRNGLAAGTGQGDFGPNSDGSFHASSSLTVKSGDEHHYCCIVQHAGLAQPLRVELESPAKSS
T3 sequence (P61769 21-119 limits assumed, chain 2 of 2): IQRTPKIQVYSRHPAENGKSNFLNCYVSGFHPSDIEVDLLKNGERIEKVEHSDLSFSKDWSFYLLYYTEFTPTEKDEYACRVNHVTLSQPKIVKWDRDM

B1: RF16-226 (antibody)
heavy: not shown
light: SYELTQPPSVSVSPGQTARITCSGDALTSKYVAWYQQKSGLAPLLVIYEDTRRPSGIPAKFSGSSSGSVATLTISGAHGDDEADYYCYSTDASGHQRVFGGGTKLTVLSQPKAAPSVTLFPPSSEELQANKATLVCLISDFYPGAVTVAWKADGSPVKAGVETTKPSKQSNNKYAASSYLSLTPEQWKSHRSYSCQVTHEGSTVEKTVAPTECS
Kd [1]: ~10 nM | Kd [2]: ~9 nM

B2: RF16-226 (antibody, human IgG4 S228P, lambda)
heavy: not shown
light: SYELTQPPSVSVSPGQTARITCSGDALTSKYVAWYQQKSGLAPLLVIYEDTRRPSGIPAKFSGSSSGSVATLTISGAHGDDEADYYCYSTDASGHQRVFGGGTKLTVLSQPKAAPSVTLFPPSSEELQANKATLVCLISDFYPGAVTVAWKADGSPVKAGVETTKPSKQSNNKYAASSYLSLTPEQWKSHRSYSCQVTHEGSTVEKTVAPTECS
notes: pH-dependent anti-C2 antibody from a phage display library; also called WT
Kd [3]: 15.2 nM | Kd [4]: 3800 nM

B3: RF16-214 (antibody, V domains shown)
VH: EVQLLESGGGLVQPGGSLRLSCAASGFTFSWYQMMWVRQAPGKGLEWVSRIYPSGGGTAYADSVKGRFTISRDNSKNTLYLQMNSLRAEDTAVYYCARDAGYGDNWGQGTLVTVSS
VL: QSALTQPPSVSVSPGQTASITCSGDKLGEKYASWYQQKAGQSPVMVIYQDRKRPSGIPERFSGSNSGNTATLTISGTQAMDEADYYCQAWDTRAVVFGGGTKLTVLG
Fold diff [5]: 1 fold

Source: patent US20220332804A1 (CSL INNOVATION, published 2022)
